B1: Complement receptor type 2 (Homo sapiens), P20023 (parent)
chain: MGAAGLLGVFLALVAPGVLGISCGSPPPILNGRISYYSTPIAVGTVIRYSCSGTFRLIGEKSLLCITKDKVDGTWDKPAPKCEYFNKYSSCPEPIVPGGYKIRGSTPYRHGDSVTFACKTNFSMNGNKSVWCQANNMWGPTRLPTCVSVFPLECPALPMIHNGHHTSENVGSIAPGLSVTYSCESGYLLVGEKIINCLSSGKWSAVPPTCEEARCKSLGRFPNGKVKEPPILRVGVTANFFCDEGYRLQGPPSSRCVIAGQGVAWTKMPVCEEIFCPSPPPILNGRHIGNSLANVSYGSIVTYTCDPDPEEGVNFILIGESTLRCTVDSQKTGTWSGPAPRCELSTSAVQCPHPQILRGRMVSGQKDRYTYNDTVIFACMFGFTLKGSKQIRCNAQGTWEPSAPVCEKECQAPPNILNGQKEDRHMVRFDPGTSIKYSCNPGYVLVGEESIQCTSEGVWTPPVPQCKVAACEATGRQLLTKPQHQFVRPDVNSSCGEGYKLSGSVYQECQGTIPWFMEIRLCKEITCPPPPVIYNGAHTGSSLEDFPYGTTVTYTCNPGPERGVEFSLIGESTIRCTSNDQERGTWSGPAPLCKLSLLAVQCSHVHIANGYKISGKEAPYFYNDTVTFKCYSGFTLKGSSQIRCKADNTWDPEIPVCEKETCQHVRQSLQELPAGSRVELVNTSCQDGYQLTGHAYQMCQDAENGIWFKKIPLCKVIHCHPPPVIVNGKHTGMMAENFLYGNEVSYECDQGFYLLGEKKLQCRSDSKGHGSWSGPSPQCLRSPPVTRCPNPEVKHGYKLNKTHSAYSHNDIVYVDCNPGFIMNGSRVIRCHTDNTWVPGVPTCIKKAFIGCPPPPKTPNGNHTGGNIARFSPGMSILYSCDQGYLLVGEALLLCTHEGTWSQPAPHCKEVNCSSPADMDGIQKGLEPRKMYQYGAVVTLECEDGYMLEGSPQSQCQSDHQWNPPLAVCRSRSLAPVLCGIAAGLILLTFLIVITLYVISKHRARNYYTDTSQKEAFHLEAREVYSVDPYNPAS

Variants of: B1
Conditions: with co3_human C3, P01024
Sequence of co3_human C3, P01024 (P01024 whole entry): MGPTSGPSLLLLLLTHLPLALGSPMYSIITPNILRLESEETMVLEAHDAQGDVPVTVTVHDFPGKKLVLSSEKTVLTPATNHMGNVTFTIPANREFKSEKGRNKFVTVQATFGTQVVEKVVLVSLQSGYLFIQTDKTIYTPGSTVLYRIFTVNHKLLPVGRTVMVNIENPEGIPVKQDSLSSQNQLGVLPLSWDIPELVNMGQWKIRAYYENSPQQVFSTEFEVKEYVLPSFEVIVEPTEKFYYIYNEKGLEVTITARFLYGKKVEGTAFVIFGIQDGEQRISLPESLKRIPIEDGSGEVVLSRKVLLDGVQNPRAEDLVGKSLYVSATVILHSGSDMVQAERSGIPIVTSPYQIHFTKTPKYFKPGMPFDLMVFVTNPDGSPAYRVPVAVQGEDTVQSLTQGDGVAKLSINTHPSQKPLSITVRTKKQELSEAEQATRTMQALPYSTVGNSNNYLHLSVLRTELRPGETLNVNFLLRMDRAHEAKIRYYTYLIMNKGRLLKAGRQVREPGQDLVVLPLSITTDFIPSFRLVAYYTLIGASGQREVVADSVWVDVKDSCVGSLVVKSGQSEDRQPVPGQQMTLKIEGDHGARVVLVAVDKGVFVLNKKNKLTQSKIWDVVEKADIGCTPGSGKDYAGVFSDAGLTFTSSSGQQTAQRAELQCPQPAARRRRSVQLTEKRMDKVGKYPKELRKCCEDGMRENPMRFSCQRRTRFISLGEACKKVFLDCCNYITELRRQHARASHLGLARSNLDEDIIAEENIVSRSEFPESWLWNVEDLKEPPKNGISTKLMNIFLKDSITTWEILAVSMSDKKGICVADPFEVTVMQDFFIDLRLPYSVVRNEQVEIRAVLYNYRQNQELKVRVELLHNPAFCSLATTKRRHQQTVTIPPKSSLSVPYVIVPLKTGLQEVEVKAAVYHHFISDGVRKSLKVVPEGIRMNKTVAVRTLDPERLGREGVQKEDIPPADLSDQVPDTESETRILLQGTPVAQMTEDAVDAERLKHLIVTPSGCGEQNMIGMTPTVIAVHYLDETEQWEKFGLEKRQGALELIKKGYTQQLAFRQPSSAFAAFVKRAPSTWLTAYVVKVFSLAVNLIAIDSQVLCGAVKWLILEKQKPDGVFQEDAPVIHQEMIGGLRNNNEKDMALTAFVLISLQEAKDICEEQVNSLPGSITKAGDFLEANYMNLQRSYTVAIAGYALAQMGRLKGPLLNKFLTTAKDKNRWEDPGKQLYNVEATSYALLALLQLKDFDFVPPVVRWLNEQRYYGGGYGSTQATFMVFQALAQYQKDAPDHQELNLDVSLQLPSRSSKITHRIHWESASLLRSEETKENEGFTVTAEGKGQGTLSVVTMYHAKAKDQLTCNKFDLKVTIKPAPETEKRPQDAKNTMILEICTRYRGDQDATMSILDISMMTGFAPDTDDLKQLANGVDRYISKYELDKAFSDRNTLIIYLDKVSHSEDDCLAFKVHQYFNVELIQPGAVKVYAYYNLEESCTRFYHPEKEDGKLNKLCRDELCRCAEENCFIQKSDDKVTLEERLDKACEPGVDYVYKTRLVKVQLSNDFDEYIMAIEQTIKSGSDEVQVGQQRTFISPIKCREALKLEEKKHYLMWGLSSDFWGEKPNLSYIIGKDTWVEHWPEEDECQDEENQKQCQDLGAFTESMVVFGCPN

Effect of a mutation on the interaction, decreasing interaction:
R103A
K128A
D112A

Reference: IntAct's records for PubMed 21527715
